Assay [1] addresses MBP-tagged PRG-1 PIWI domain (C. elegans). Nature of the assay: MST.
For assay [2], the target named is Recombinant full-length MBP-tagged DEPS-1 (C. elegans) (UniProt Q9N303). The experiment in a line: MST.
Recombinant full-length MBP-tagged DEPS-1 (C. elegans), sequence (Q9N303 whole entry): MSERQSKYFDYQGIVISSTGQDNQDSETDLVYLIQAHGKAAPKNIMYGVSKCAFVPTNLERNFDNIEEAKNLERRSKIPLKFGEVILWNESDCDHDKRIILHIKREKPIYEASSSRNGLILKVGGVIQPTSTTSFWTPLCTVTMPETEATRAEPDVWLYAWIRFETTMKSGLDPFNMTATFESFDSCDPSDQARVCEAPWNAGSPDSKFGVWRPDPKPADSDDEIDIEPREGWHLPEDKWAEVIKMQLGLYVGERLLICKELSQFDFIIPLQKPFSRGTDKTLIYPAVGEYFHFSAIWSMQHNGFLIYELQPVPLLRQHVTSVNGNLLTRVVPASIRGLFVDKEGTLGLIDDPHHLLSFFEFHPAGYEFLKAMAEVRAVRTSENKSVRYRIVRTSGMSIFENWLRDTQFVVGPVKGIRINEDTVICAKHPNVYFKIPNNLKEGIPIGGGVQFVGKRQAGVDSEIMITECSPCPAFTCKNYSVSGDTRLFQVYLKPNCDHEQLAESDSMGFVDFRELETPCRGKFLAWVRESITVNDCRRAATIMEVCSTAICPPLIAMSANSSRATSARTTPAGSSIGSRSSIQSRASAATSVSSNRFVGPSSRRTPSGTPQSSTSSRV

MBP-tagged DEPS-1 N-terminal fragment (DEPS-1^frag1) (domain or fragment), sequence (Q9N303 whole entry, the tested form may be a part): as the sequence (Q9N303 whole entry) above

The Kd is the concentration at which binding is half-saturated. On to “MBP-tagged DEPS-1 N-terminal fragment (DEPS-1^frag1) (domain or fragment)”, for which, in assay [1], the equilibrium dissociation constant (Kd) stood at 151 nM.
Take “MBP-tagged PRG-1 PIWI domain (domain or fragment)”: the Kd in assay [2] amounted to 349 nM.

The record behind these values is paper doi:10.1101/580043.
